In the RNAGym collection of RNA variant scans (doi:10.1073/pnas.2313332121):

B1: TPR t1 (parent)
chain: GACCAAUCUGCCCUCAGAGCUCGAGAACAUCUUCGGAUGCAGAGGAGGCAGGCUUCGGUGGCGCGAUAGCGCCAACGUCCUCAACCUCCAAUGCAUCCCACCACAUGAUGAUGCCUGAAGAGCCUUGGUUUUUUG

Variants of: B1
Assay: polymerase ribozyme fitness, log enrichment relative to wild type (log ratio); higher = more active; in vitro selection for triplet polymerase activity
Outline: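 The heterodimeric triplet polymerase ribozyme's subunits were each mutagenized into PCR-built libraries and transcribed. Every library was selected once, in triplicate, by annealing with a biotinylated primer, the partner subunit and triplets, incubating frozen at −7 °C, gel-excising extended constructs, capturing on streptavidin beads and running RT-PCR. Input and output libraries were Illumina-sequenced, with genotypes kept only at ≥10 input reads and ≥1 read per output. Fitness, from inverse-variance-weighted replicate averages, is the base-2 logarithm of genotype enrichment over wild-type enrichment.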

In order of rising “polymerase ribozyme fitness (log ratio)” value:
1. U106A G107U U116C  -7.47
2. G107A C114G G128A  -7.24
3. U109G C115A  -7.19
4. C101G C102U G117A  -7.15
5. G107U C114A  -7.09
6. U109A U116C  -7.07
7. C104U U106A U109A C114U C123U  -6.98
8. C104G  -6.88
9. A100C U109A  -6.83
10. U109A C123A  -6.83
11. C99U G110C  -6.69
12. A108U U129A  -6.43
13. A108G U116A C123U  -6.42
14. U109A A111C C114A G117C  -6.37
15. U109G G113A G127C  -6.26
16. A105U G110U  -6.12
17. C101U A105C C114A  -6.11
18. C102U U109A  -6.07
19. C102A U109A  -5.92
20. C104G C114G G120A U126C U133G  -5.9
21. U106A U112G G117C  -5.9
22. G107A U125G  -5.84
23. G107A G113C  -5.82
24. A103C U109G U130C  -5.77
25. C99U G128A U129A  -5.76
26. U109G G113A  -5.72
27. A105U A111U  -5.69
28. C99A C123A  -5.64
29. A103G U130A  -5.53
30. C99A G122A  -5.29
31. G110A G113U  -5.23
32. A105C U109A U133C  -5.16
33. C101A G117C  -5.15
34. U109A U130A  -5.09
35. C101G G110U  -4.98
36. A108U  -4.97
37. A103U G120C C124U  -4.96
38. C104A G117C U131C  -4.93
39. U109G C114G  -4.93
40. C102U G128C U129A  -4.82
41. U109A G135U  -4.82
42. C101A A105C A118U  -4.79
43. G107U A121U G128C  -4.77
44. C98U U116A  -4.71
45. U106C U109A A121U  -4.69
46. C101U G107A  -4.66
47. U106C G107U  -4.63
48. C99U C101A  -4.62
49. A105U G117A  -4.52
50. G110C G122U  -4.38
51. C101G C102G G110C  -4.36
52. A108U C124A  -4.18
53. A103U U130A  -4.14
54. C99U C114U  -4.12
55. C99U U134C  -4.03
56. C101U U109C  -3.93
57. U109G U132A  -3.91
58. C99U C115A  -3.86
59. G107A U112C  -3.85
60. U109A C123U  -3.85
61. C104A C114G  -3.81
62. C104A G110U  -3.77
63. U106A U109A  -3.73
64. C102U U125A U129C  -3.71
65. A108C  -3.71
66. C102A C114U  -3.69
67. C104A G128A  -3.67
68. C101G G117A  -3.52
69. A103U C123U  -3.47
70. A100G G120U  -3.45
71. C104A C124U U130A  -3.43
72. C102U U106C G113A A121C U131G  -3.34
73. C99U C123A  -3.32
74. G110C C124A  -3.32
75. G110A G127A U134C  -3.29
76. U109A G110U  -3.28
77. U106A G127C  -3.2
78. G110U G135U  -3.12
79. U106A G110U U126A U130A  -3.03
80. C101A C114U  -2.99
81. A100C C102A  -2.98
82. C101G G122A  -2.93
83. C101G U112A U116A U126A G127U  -2.86
84. C102U G113A  -2.86
85. A108G U112A  -2.86
86. C99U A111C  -2.83
87. G110U G120U  -2.75
88. C102A G113A  -2.68
89. C101A G117A  -2.65
90. A103U C124G U131C  -2.6
91. A103U A121G C123U  -2.56
92. C101A G110A  -2.55
93. C102A U112G U132A  -2.53
94. C101U A111C U116G  -2.46
95. A105G G120U  -2.44
96. C104A G117A  -2.41
97. A100U U116C  -2.35
98. C99U C101U  -2.29
99. A105C C114U G120C  -2.29
100. C101G G127A  -2.28
101. A111C A119U  -2.28
102. C104A G120C G127A U129A  -2.25
103. G110A A119C  -2.25
104. C99U A111G  -2.23
105. C101A C114A  -2.19
106. G110U U112C  -2.02
107. C104U U112G U116C  -1.98
108. C104U G117U U132A  -1.97
109. A105G G120C  -1.97
110. U106A G117C  -1.94
111. G110A G135U  -1.92
112. G110A G120U  -1.91
113. G110A C115A  -1.87
114. C102U U132A  -1.83
115. C101A G127C  -1.82
116. A108G G122U  -1.78
117. C104A G120U G127C  -1.76
118. A100U C123G  -1.75
119. U106C C123G U133G  -1.72
120. C101G  -1.66
121. C99U A119G  -1.65
122. C98U U125A  -1.46
123. C104A  -1.45
124. G110A G122U  -1.41
125. G110A U132A  -1.37
126. C104A C123U G128U U130A  -1.35
127. A108G  -1.19
128. C104A U134G  -1.17
129. C101A  -1.14
130. A100C U133G  -1.12
131. C101U G122A  -1.06
132. C102U G120C  -1.05
133. G110U U125A  -0.916
134. C101A U131C  -0.88
135. A100U U106C  -0.792
136. C101G C123U  -0.756
137. C104U G117A  -0.723
138. U106A G122A  -0.693
139. A105G U112C  -0.683
140. A100U U133A  -0.657
141. C101A U112G C115A  -0.657
142. A100U U133G  -0.612
143. U106A G110U  -0.605
144. U106A U133G  -0.54
145. C101A C104A A121C  -0.368
146. C101U U106C A111C  -0.324
147. G110A C123U  -0.322
148. C101G U106A G122A  -0.277
149. A100C U112G  -0.251
150. C98U G120C  -0.208
151. A100U U112G  -0.123
152. C104U U130G  -0.0774
153. C101U  -0.0389
154. A100C U112C A118G  0.0171
155. C101U C123A  0.0488
156. C102U A121U  0.0802
157. C104U  0.111
158. G110A A121U  0.16
159. C104U A118U U131A  0.243
160. A111C  0.388
161. A105G U106A G120U U133C  0.414
162. U106A C124A G128A  0.53
163. U106A U112A  0.701
164. A100C C124A  0.995
165. C101U C124A  1.17
166. A100C A121G  1.39
167. A100C G120A  1.47
